Reference: patent US20200317768A1 (published 2020)

Biological target: T1, Mouse latent myostatin (mouse, UniProt O08689 26-267; O08689 268-376)
T1 construct: signal 1-24
T1 sequence 1: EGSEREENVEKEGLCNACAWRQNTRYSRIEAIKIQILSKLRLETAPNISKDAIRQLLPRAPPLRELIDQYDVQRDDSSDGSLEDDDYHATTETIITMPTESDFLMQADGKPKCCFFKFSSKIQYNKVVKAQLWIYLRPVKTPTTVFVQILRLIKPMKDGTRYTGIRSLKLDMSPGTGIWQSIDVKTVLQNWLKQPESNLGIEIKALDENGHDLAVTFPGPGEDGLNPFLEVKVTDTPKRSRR
T1 sequence 2: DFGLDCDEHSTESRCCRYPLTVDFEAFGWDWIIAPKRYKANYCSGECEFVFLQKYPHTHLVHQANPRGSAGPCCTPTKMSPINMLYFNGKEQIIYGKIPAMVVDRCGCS
Experiment: SPR (BIACORE T200), 37 C, pH5.8, 1:1 fit; title prints avidity, by the text the affinity condition (capture 18.5 RU); pH 5.8
Protocol: The kinetic parameters of anti-latent myostatin antibodies against human, cynomolgus monkey (cyno), and mouse latent myostatin were assessed at 37° C. at pH7.4 using a BIACORE® T200 instrument (GE Healthcare). ProA/G (Pierce) was immobilized onto all flow cells of a CM4 chip using amine coupling kit (GE Healthcare). Anti-latent myostatin antibody and analytes were prepared in ACES pH7.4 (20 mM ACES, 150 mM NaCl, 1.2 mM CaCl₂), 0.05% TWEEN® 20, 0.005% NaN₃). […] Then human, cyno, or mouse latent myostatin was injected at 3.125 to 50 nM prepared by two-fold serial dilution, followed by dissociation. The sensor surface was regenerated with 25 mM NaOH. Kinetic parameters were determined by processing and fitting the data to a 1:1 binding model using BIACORE® T200 Evaluation software, version 2.0 (GE Healthcare).
All experimental settings were the same as in Example 7, except that measurements were also performed in ACES pH5.8 buffer in addition to ACES pH7.4 condition. Some antibodies were only measured against human latent myostatin. Antibody capture level was aimed at 185 RU and 18.5 RU, for avidity and affinity assay, respectively. Kinetic parameters were determined using 1:1 Binding fitting using BIACORE® T200 Evaluation software, version 2.0 (GE Healthcare).

B1: MS_M103205H000-SG1/M103202LO00-SK1 (antibody, human IgG1, kappa, V domains shown)
VH: QVTLKESGPVLVKPTETLTLTCTVSGIDLSSYDISWVRQAPGKGLEWVGIISYAGSTYYASWAKGRLTISKDTSKNQVVLTMTNMDPVDTATYYCARGVPAYSTGGDLWGQGTLVTVSS
VL: DIVMTQSPATLSLSPGERATLSCQSSQSVYDNNWLSWFQQKPGQPPKLLIYWASTLASGVPSRFSGSGSGTDFTLTISSLQPEDAATYYCAGGYGGGLYAFGQGTKVEIKR
notes: Humanized MST1032, not pH-dependent; also called MS1032LO00-SG1; Ab001
B1 was tested, and the Kd was 0.0438 nM, the koff was 7.08e-05 s⁻¹ and the kon was 1.62e+06 M⁻¹ s⁻¹.
